Data reported in the supplement of paper PMC12764529.
± gives the half width of the 95% confidence interval.

Columns and labels:
[1] = folding stability dG unfold from chymotrypsin proteolysis; higher = more stable
Summary of the method: (§1)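 Unfolding free energy was derived, per protease or combined, against a sequence-predicted unfolded-state K50 and a shared folded-state K50, starting from K50 inferred by Bayesian fitting of sequencing counts. Digestion with trypsin and chymotrypsin was carried out on designed mini-proteins under 80 residues without cysteine in a PA-tagged cDNA display construct. Only designs with AlphaFold2 dimer inter-PAE above 15 were kept.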

[2] = folding stability dG unfold (combined trypsin and chymotrypsin); higher = more stable
Summary of the method: as §1

[3] = folding stability dG unfold from trypsin proteolysis; higher = more stable
Summary of the method: as §1

Sequence	folding stability dG unfold [1]	folding stability dG unfold [2]	folding stability dG unfold [3]
SKLKIEDIKWNPNYPGMYEFKIKLPDKPATIQIPHDPNNGRFMMEIWYPDKPVTVQFDSWDDALAFIKELSA [r9_366_TrROS]	5.64 ± 0.669 kJ/mol	6.35 ± 0.46 kJ/mol	6.71 ± 0.192 kJ/mol
SKMKVIKTFENKETGEKIVIVKDEKTKKYYIFIYNKDGELVEKIEVEPGETITLPNGKTITIKEGDVIEFSA [r9_340_TrROS_Hall]	17.7 ± 0.297 kJ/mol	18.2 ± 0.364 kJ/mol	17.7 ± 0.544 kJ/mol
SKNKVEITIPMPYSQAREIARQLGLPPEKFKDPKDLVDWLKDLFPKDVKIRIQPMKPVTEEERRARQNGKSA [r9_74_TrROS]	5.6 ± 0.318 kJ/mol	4.7 ± 0.356 kJ/mol	3.42 ± 0.502 kJ/mol
SKNYPIRISIFQRNPNGNPQTVTYPIPVDAAKELKDAGFEVKDVDPDSGMIMVKFPMPNYPVYIMISIEDSA [r9_5_TrROS]	13 ± 0.234 kJ/mol	12.5 ± 0.544 kJ/mol	11.5 ± 0.389 kJ/mol
SKPDPVKIEIEQERNPNGQPQHTIKIQDKGKDRKFPIHNMSIDEFDPDDPYIKIRSPGNGQSHTIPPDDLSA [r9_1186_TrROS]	5.12 ± 0.092 kJ/mol	3.48 ± 0.41 kJ/mol	-0.253 ± 0.305 kJ/mol
SKPILKIKINIPVLKDKNGKEIIPSPNDVLAALEKLGIPVDKAEITKIGKNTIPILILVDLVDGKAYVKDSA [r9_225_TrMRF]	2.25 ± 0.226 kJ/mol	4.72 ± 0.418 kJ/mol	6.32 ± 0.247 kJ/mol
SKPPSDPGSIEFSFPDSSNVTVTIPVPLPPNTTVSISLSDGKSYTVPGGTTFTFTLPPGKPFTVTVNIRSSA [r9_79_JUSTAS]	18.7 ± 0.255 kJ/mol	17.7 ± 0.837 kJ/mol	15.7 ± 0.837 kJ/mol
SKPTLTLKLTVVVKDENGEKKTVTLTIPVSEEELEKLLKEIAKELGLKDVKVVKIEKNKNGFIKITVEVKSA [r9_1101_TrROS_Hall]	9.89 ± 0.138 kJ/mol	9.86 ± 0.879 kJ/mol	9.04 ± 0.502 kJ/mol
SKTFYAGLDVYFDPDSDELTALVGVRSEDGSYEPSLEEVAREVAAKLRELGYEVEVEPLPGYARIRVKPPSA [r9_510_TrMRF]	7.21 ± 0.289 kJ/mol	7.17 ± 0.238 kJ/mol	6.99 ± 0.163 kJ/mol
SKTIIIEVKEEKLEEIAEELAKKLEEETGYKIKKVEIILPDGTVVRIEVDAKTKKIKIEVYKLDKNGKLLSA [r9_173_TrROS_Hall]	9.36 ± 0.402 kJ/mol	8.25 ± 0.418 kJ/mol	4.82 ± 0.155 kJ/mol
SKTIMFQFDSIEEIKDFIKEAIDDGDPDQKIRIEWYPPGGRRQEHEIESPEDIIDFLENGPYWIRVEIEPSA [r9_589_TrROS]	9.02 ± 0.197 kJ/mol	8.57 ± 0.502 kJ/mol	7.03 ± 0.218 kJ/mol
SKVIYVPPGATVEEILAAIKANKGKTVTIVMSREELERLKKALEEAGYEVEEVKVFEEEPYVVVKIKVKPSA [r9_1138_TrROS_Hall]	15.6 ± 0.502 kJ/mol	16.1 ± 0.753 kJ/mol	16.7 ± 0.711 kJ/mol
SLGPLVELAELFPDFEPLGVEEEPLEDGGRLLRVIGRIPEIGAYLLIEVRLPPGGGIESIRAEWVPEDELSA [r9_274_TrMRF]	17.9 ± 0.297 kJ/mol	16.5 ± 0.46 kJ/mol	14.2 ± 0.502 kJ/mol
SLIEALRAALEAGADEVTLRIVMPEEEAEELEKALEDLGFEIVSRERVEVDGRRYLVMEIRLRAPPPEEPSA [r9_498_TrROS_Hall]	20.6 ± 0.351 kJ/mol	19.2 ± 0.418 kJ/mol	16.4 ± 0.397 kJ/mol
SLKPGEWVMFMFTIPITIRITKDDLPPGWKIKEVTIRIYVMFLFRVDPDGNFKILSFNIMIEIEVKYEPDSA [r9_747_TrROS]	21.3 ± 0.339 kJ/mol	20.8 ± 0.46 kJ/mol	18.9 ± 0.544 kJ/mol
SLRDIAKEIAEKAGMDPEDVEINVETEPDPKNGKPRLRITVSIEHPNRKYMIKIDFQDGEIEEIMPLEDISA [r9_1219_TrROS]	8.25 ± 0.372 kJ/mol	7.27 ± 1.26 kJ/mol	6.95 ± 0.414 kJ/mol

Sequence	folding stability dG unfold [1]	folding stability dG unfold [2]	folding stability dG unfold [3]
SLSPALEGPEALAALAAADPVPPLPVLTVKNSTGDPEKALEEVLKEHPELKPELIVEVEVGEGTLTITVLSA [r9_723_JUSTAS]	2.4 ± 0.397 kJ/mol	2.01 ± 0.795 kJ/mol	1.85 ± 0.544 kJ/mol
SLTAEEAAANPELAARLLALPPVPPFPVELLFVNPETRAVLPAKATVYQFPNTWLVLFPENGAALPVPGGSA [r9_548_TrMRF]	5.29 ± 0.31 kJ/mol	4.61 ± 0.414 kJ/mol	2.97 ± 0.586 kJ/mol
SLTPEQVEKIAKTIADVFRKLGYELKVKTKVFEVNNVPVAVVEFELIDKDGKPRRFRFVIHPDGTIEIFPSA [r9_1027_TrMRF]	25.9 ± 0.385 kJ/mol	> 25.1 kJ/mol	17.4 ± 0.293 kJ/mol
SMATVLSVSENPENPDTLSFEVELPDSPMSVTVPKDPKTGKYTMTVETPEATTTRDFTSLEDALAYIERASA [r9_366_JUSTAS]	3.17 ± 0.335 kJ/mol	3.33 ± 0.142 kJ/mol	3.29 ± 0.0879 kJ/mol
SMDFKENQSFYITEITDDEVTFIFNNKPYKFPKEFINSKDTIITIYNGKIKEIKKPKPLKLHPEEIKKLSSA [r9_842_TrMRF]	5.99 ± 0.502 kJ/mol	4.36 ± 1.51 kJ/mol	2.17 ± 0.711 kJ/mol
SMDIKVTKLPDGSYRITASVPPDTKPITIPVPKTGKPVVITTEPGKLTVTTDDEEVVKEVAEAIKKGELLSA [r9_515_JUSTAS]	3.89 ± 0.364 kJ/mol	4.27 ± 0.628 kJ/mol	3.98 ± 0.276 kJ/mol
SMEEEEEEPEPAPVVVITVEPGETVEQVRAAAREAAEKGMRIVITGLSEEEAKAIAEELGLDVEIEVVEPSA [r9_1207_TrROS_Hall]	6.17 ± 0.669 kJ/mol	11.3 ± 3.26 kJ/mol	12.6 ± 1.38 kJ/mol
SMEEIAKEIAEKAGVNWENVEFKVEEKEDPETGEKYLIAHVVIKLPNEKYIAVIDLRDKKILEIWKLEDISA [r9_1219_TrMRF]	15.6 ± 0.264 kJ/mol	15.1 ± 0.46 kJ/mol	12.2 ± 0.46 kJ/mol
SMEIDPGPGVIRLRFEAPLVDPEHPRLLTLRLEPVIEVSPDGTLRVREVRLVGFSPDGELLFERPFTLDLSA [r9_383_TrMRF]	9.55 ± 0.251 kJ/mol	9.03 ± 0.276 kJ/mol	7.803 ± 0.0711 kJ/mol
SMEISFTDPAEAEALLAEVKAKLKAELPPNTVVPITVRDAAGNPTTHPITITPEPPEVVYFTETGGTVLLSA [r9_596_JUSTAS]	6.56 ± 0.213 kJ/mol	7.37 ± 1.17 kJ/mol	8.1 ± 0.711 kJ/mol
SMEIVFKGKNYYVPVKIDLDNPKITIETYPDKRNKVFKPLSKETAEKIAKAVEIEVAEKIAKAIAEGKPPSA [r9_368_TrMRF]	-2.09 ± 2.76 kJ/mol	-1.03 ± 2.26 kJ/mol	0.225 ± 1.63 kJ/mol
SMEKVKAKPAGEVTFVFDNEDPSLTPEQQVELVEKELEKLPELKIYEVEAEVDLETGKVTIKVKLLVEEVSA [r9_1001_TrMRF]	5.26 ± 0.46 kJ/mol	3.41 ± 0.92 kJ/mol	-1.72 ± 1.17 kJ/mol
SMEMTPEERLLALLREARKKHPGKKIVLSVEEIEELLGVDLSAEEIAKLLKEELGIDEVEIVEEEEPEEESA [r9_738_TrROS_Hall]	14.12 ± 0.13 kJ/mol	12.6 ± 0.289 kJ/mol	8.84 ± 0.234 kJ/mol
SMEPGELRLRAKVPLRIVNPDGEEIADIEIEVRSIEELEEAIAEAARELAERLGRPDAPVVIDDIEVEDESA [r9_376_TrMRF]	2.69 ± 0.586 kJ/mol	2.02 ± 0.962 kJ/mol	1 ± 0.795 kJ/mol
SMGMTPEEYILELVREALAADPDAAVTIDHDDIVRNTPNPISKEEIEKLAKEKTGVEDLTVTETPPDVPPSA [r9_738_JUSTAS]	1.06 ± 0.226 kJ/mol	1.11 ± 0.255 kJ/mol	0.753 ± 0.0962 kJ/mol
